Measured values: PMC11701102, “Structural insights into the interplay between microtubule polymerases, γ-tubulin complexes and their receptors” (Nature Communications, 2025)

B1: FLAG-Stu2 (C. albicans, full length) (natural protein, UniProt A0A1D8PTZ8 1-924, looked up)
chain: MSTEEEDYSNLSLEERFVHKVWKVRLQAYEELATNIENSRNESDPIFTSLSLDNLKKMILDSNVVAQETGYNTFNKFLIFGGNAANVSKLKNLGIIGSICEKGLLSSRKNTKEWSVESILLMIEISNDPNSIVEDILPYLTNRLPKLVTGCVSCLASIIENFGCKIISPKPIVPCLSKLFAHADKNVRNETTKLTIELYRWMGDALINALFSDLKPVQQKDLTAAFEKEKGTSPQQKRYTKKQREEIERREQEAAAAAAAAAATTAGNGGGNGDDVDDVEMSDVNGVTDDNEYDPLEFVDPVEVLNKFPSDFDSRISSSKWKDRKEVLEEIIPILEKSPKLITTDDYLPVLRIWAKCMKDANIQVVQLAANCIEFVIKGLGNEFSKYQSVVLTPVVERLKEKKPSVATALDNVLDALFNLSGFGNGVLDEAINGMKLKTPQNKIASANFVKRCLSTTKIPPKTSEIDAIMEVGIKLLSESQEPIRQAATEMIGTLMKITGPRELKPFLEKVDENRKNKINDYYEETAQVKTTMANASKSSSVASGSRNVSTAGGSFSSSTMKPPSKSSQDRKTSSGASSIIPAKRTASSPAKRDEVKNGRGMTARSLAKPNIPSLRPPTNVTQDSSGDGSSFSQQQQQQQVPSTSTGGGSGGAQSMISSVTNEEVNLLKQQIIKLQEEVQNYKNQQESHLKTIKLLEESNNNYREEIESVKRELSNEKRNATITTNHKDTHINNLKSELEKANYRIKDLEQEREINRLQQSNLAFERSNISSSNSRNSFYKPSPNKFAPSDISTGVKRLSIGGEENNHFGGGGGASPNFHNNTIHSTNTTTSTTATASGAGIGTGVGTGTGTGTGTGMGISRPTNSFRSSVNYGSTSSLTSSSRRESMDIDNGADWKRAAEVTLQLKARIERMKARTRSPLNIE
notes: Stu2, C. albicans, full-length Met1 to Glu924; FLAG tag followed by an HRV 3C cleavage site at the 5' end; also called wild-type FLAG-Stu2; source: Sf21 insect cells; not shown: FLAG, N-terminal, kept
B2: His-Spc72^1-599 (C. albicans), co-expressed in insect cells (domain or fragment, UniProt Q5AGV5 1-599, looked up)
chain: MSNLSINESNDNSNVSILSNKSGAQSSTNSSPNLIVFKQPEDLSIQLQQQQQGTQEDTPEEEEEEEEEMEQITQLEVQQENQPDTLSSSPFISRPNSPLDDIIRPQGTSSPSLTIRDSYSSQVDINISNLHKSLNEMRLSTDPVDNNNNNNKVNKNNPTNSDISNDDIITIDNLTPSRIQPKNISPWRQFRPTLRGSPESTPRSLFQNKPNLKFNNGLSPTNGSRDMVTNNIATTTKSREEELNKRIVNYKIQLKLMKNFLQELIDRNNLDPHEFHTLLRRNNNNIMNNENNPLSTSLSQTSTLEIQHQNLQIELDEALELNKQLYNKIETANKEISDKDLQISNYESRINLINYSVDELIYILINEYDKNNYSHGGSNTTSPGKETLQQSISAQLEVKLNVLKLELMTRLDQSHQYNNKPHDLFTPPYTSSEYGVSTNNVANKNDLEGYIHIIEDLIKTVDELELTCENYKANKNELQNQLVEQINESIRIKNNFQIMSNKFNQLRQSLSEKENDKNLDEFSKNNHQQQQQQQIQQLEQKLIEYEKCITILQDELDQYKQPSDTTNTTNNNNNNNNNNNRSSYSSYNNHRNSSLNELN
notes: Only the CM1 motif is resolved in the cryo-EM map, as a parallel dimeric coiled coil; source: Sf21 insect cells, MultiBac co-expression with γ-TuSC components and FLAG-Stu2 or His-GFP-Mzt1

Assays:
[1] = target: B2; experiment: SEC; FLAG-purified γ-TuSC/His-Spc72^1-599/FLAG-Stu2 on Superose 6 Increase 10/300 in HB100 buffer (40 mM K-HEPES pH 7.4, 100 mM KCl); fractions by SDS-PAGE, Western blot and gel densitometry; ring-like oligomers also seen by negative stain EM; settings: both partners purified
[2] = target: the molecule itself; experiment: SEC-MALS + other: mass photometry; FLAG-Stu2 (10 µM) and His-Spc72^291-599 (60 µM) alone or mixed 1:1 (vol), Superdex 200 Increase 5/150, 50 mM Tris-HCl pH 7.5, 150 mM NaCl, room temperature; mass photometry below 40 nM
[3] = target: the molecule itself; experiment: cryo-EM structure; γ-TuSC/Spc72^1-599/FLAG-Stu2 complex purified via FLAG-Stu2; single particle analysis, γ-TuSC unit within oligomers at 3.6 Å, 14-spoked ring at 8.2 Å
[4] = target: T1, γ-tubulin small complex (γ-TuSC) from C. albicans: His-Spc97, His-Spc98, γ-tubulin (Tub4) (C. albicans, UniProt Q59PZ2 1-871; A0A1D8PS42 1-785; O93807 1-502); experiment: SEC; FLAG-purified γ-TuSC/His-Spc72^1-599/FLAG-Stu2 on Superose 6 Increase 10/300 in HB100 buffer (40 mM K-HEPES pH 7.4, 100 mM KCl); fractions by SDS-PAGE, Western blot and gel densitometry; ring-like oligomers also seen by negative stain EM; settings: both partners purified
T1 construct: Spc97 (homologue of human GCP2), C. albicans; Spc98 (homologue of human GCP3), C. albicans; γ-tubulin (Tub4), C. albicans; For MST the purified γ-TuSC was labelled with an amine-reactive dye (GREEN-NHS kit); also called γ-TuSC unit; γ-TuRC (as ring of seven γ-TuSCs); source: Sf21 insect cells (baculovirus); copies: 1 + 1 + 2

Binder | stoichiometry N [1] | stoichiometry N [2] | stoichiometry N [3] | stoichiometry N [4]
B1 | < 2 Stu2 dimers per Spc72 dimer | 2 | – | –
B2 | – | – | 2 | ~2 Spc72^1-599 per γ-TuSC (Spc97:Spc98:γ-tubulin:Spc72^1-599)
